# Patent publication US5972351A, “Plasmodium falciparum MHC class I-restricted CTL epitopes derived from pre-erythrocytic stage antigens” (Isis Innovation Limited, priority 1992, dated 1999)
# What was measured:
# HLA-B53 = molecular target: T1, HLA-B53 (Homo sapiens, UniProt P01889, A329T/A93T/A95T/C349S/D201E/D98Y/E176V/E187L/E204Q/E69T/G107R/I218V/K202T/L105A/L119I/N104I/Q94N/R106L/R155S/R180L/S101N/S121R/S35A/S48A/T118I/V127L/V306I/V36M/Y140S/Y91F); assay: HLA assembly assay (peptide binding to HLA-B53); settings: lysates of T2-B53 cells; all peptides initially tested at 4 μM
# T1 construct: by transfection with a genomic clone of HLA-B53 using hygromycin selection; expressed in transfected cells; host or cells: T2-B53 (T2 cells transfected with a genomic clone of HLA-B53); lysates of 35S-methionine-labelled cells
# Description: Briefly, the mutant cell line T2-B53 was derived from T2 cells of HLA type, HLA-A2, -B51, by transfection with a genomic clone of HLA-B53 using hygromycin selection. […] Peptide concentrations were determined with a Micro BCA colourimetric assay (Pierce). Peptides were added to lysates of ^35 S-methionine-labelled cells and incubated overnight at 4° C.^36. Stable assembled class I molecules were then precipitated with monoclonal antibodies W6/32^34 (reactive with all assembled class I molecules) or MHM5^41 (reactive with assembled HLA-B but not HLA-A molecules).
# B53 matched target cells = assay: CTL assay with HIV-2 gag restimulated CTL; assay type: cell-based, human; settings: CTL from one HLA-B53 positive HIV-2 infected Gambian
sequence,measurement,setting,value
ALSEGCTPYDINQMLNNCVGD [P1],binding to HLA-B53 in the HLA assembly assay,HLA-B53,positive result
same,recognition of peptide-pulsed targets by HIV 2-gag restimulated CTL,B53 matched target cells,recognised
